T1: human PAC1 receptor on SH-SY5Y (CRL-2266) cells (human, UniProt P41586 24-468)
T1 sequence: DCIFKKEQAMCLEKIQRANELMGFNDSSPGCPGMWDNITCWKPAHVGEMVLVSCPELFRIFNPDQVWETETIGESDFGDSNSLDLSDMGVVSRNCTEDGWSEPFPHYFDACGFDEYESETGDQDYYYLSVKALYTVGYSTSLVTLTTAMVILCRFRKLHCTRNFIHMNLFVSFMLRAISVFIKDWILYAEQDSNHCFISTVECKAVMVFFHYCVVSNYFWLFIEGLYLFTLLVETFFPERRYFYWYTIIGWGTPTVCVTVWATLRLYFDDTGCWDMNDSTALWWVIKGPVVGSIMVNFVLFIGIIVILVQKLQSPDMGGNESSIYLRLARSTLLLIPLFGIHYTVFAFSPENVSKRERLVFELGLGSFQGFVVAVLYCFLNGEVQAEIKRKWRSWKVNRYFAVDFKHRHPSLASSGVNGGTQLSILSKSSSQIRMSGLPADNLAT


Experiments:
[1] = biological target: human CGRP receptor (human CRLR / human RAMP1 heterodimer) on SK-N-MC (HTB-10) cells (human, UniProt Q16602 23-461; O60894 27-148); assay: cell-based or functional assay
Sequence of human CGRP receptor (human CRLR / human RAMP1 heterodimer) on SK-N-MC (HTB-10) cells (Q16602 23-461 limits assumed, chain 1 of 2): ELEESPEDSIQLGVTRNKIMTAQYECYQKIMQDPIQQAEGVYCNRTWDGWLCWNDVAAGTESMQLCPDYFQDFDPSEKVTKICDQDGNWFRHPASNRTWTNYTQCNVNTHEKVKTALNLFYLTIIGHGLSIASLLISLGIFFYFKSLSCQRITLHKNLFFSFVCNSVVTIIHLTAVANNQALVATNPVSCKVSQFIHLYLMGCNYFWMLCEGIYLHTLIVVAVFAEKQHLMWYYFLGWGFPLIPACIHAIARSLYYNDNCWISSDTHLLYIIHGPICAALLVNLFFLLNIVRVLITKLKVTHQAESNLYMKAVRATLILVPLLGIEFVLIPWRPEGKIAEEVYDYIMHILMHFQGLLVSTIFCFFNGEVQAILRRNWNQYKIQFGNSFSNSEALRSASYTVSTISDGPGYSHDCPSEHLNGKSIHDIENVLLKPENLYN
Sequence of human CGRP receptor (human CRLR / human RAMP1 heterodimer) on SK-N-MC (HTB-10) cells (O60894 27-148 limits assumed, chain 2 of 2): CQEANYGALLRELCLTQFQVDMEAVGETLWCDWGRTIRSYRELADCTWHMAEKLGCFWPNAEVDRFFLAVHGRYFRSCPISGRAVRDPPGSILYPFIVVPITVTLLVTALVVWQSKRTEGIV

[2] = biological target: T1, human PAC1 receptor on SH-SY5Y …; assay: cell-based or functional assay

Row | Binder | Fold-improvement over 4E4 Ab (human CGRP receptor IC50) [1] [fold] | Human CGRP Receptor IC50 (nM), cell-based cAMP assay [1] [nM] | Fold-improvement over 29G4v22 Ab (human PAC1 receptor IC50) [2] [fold] | Human PAC1 Receptor IC50 (nM), cell-based cAMP assay [2] [nM]
1 | iPS:571017 (5604) anti-CGRP receptor/anti-PAC1 receptor bispecific hetero-immunoglobulin (bispecific antibody, human IgG1, kappa, lambda, N297G) light 1: QSVLTQPPSVSAAPGQKVTISCSGSYSNIGRYSVSWYQQLPGTAPKLLIYDNNKRPSGIPDRFSGSKSGTSATLGITGLQTGDEADYYCGTWDSRLSAVVFGGGTKLTVLGQPKAAPSVTLFPPSSEELQANKATLVCLISDFYPGAVTVAWKADSSPVKAGVETTTPSKQSNNKYAAKSYLSLTPEQWKSHRSYSCQVTHEGSTVEKTVAPTECS heavy 1: QVQLVESGGGVVQPGRSLRLSCAASGFTFSSFGMHWVRQAPGKGLEWVAVISFDGSIKYSVDSVKGRFTISRDNSKNTLFLQMNSLRAEDTAVYYCARDRLNYYESSGYYHYKYYGMAVWGQGTTVTVSSASTKGPSVFPLAPSSKSTSGGTAALGCLVKDYFPEPVTVSWNSGALTSGVHTFPAVLQSSGLYSLESVVTVPSSSLGTQTYICNVNHKPSNTKVDKKVEPKSCDKTHTCPPCPAPELLGGPSVFLFPPKPKDTLYITREPEVTCVVVDVSHEDPEVKFNWYVDGVEVHNAKTKPCEEQYGSTYRCVSVLTVLHQDWLNGKEYKCKVSNKALPAPIEKTISKAKGQPREPQVYTLPPSRKEMTKNQVSLTCLVKGFYPSDIAVEWESNGQPENNYKTTPPVLKSDGSFFLYSKLTVDKSRWQQGNVFSCSVMHEALHNHYTQKSLSLSPGK light 2: EIVLTQSPATLSLSPGERATLSCRASKSVGRSLHWYQQKPGQAPRLLIKYASQSLSGIPARFSGSGSGTDFTLTISSLEPEDFAVYYCHQSSRLPFTFGPGTKVDIKRTVAAPSVFIFPPSDEQLKSGTASVVCLLNNFYPREAKVQWKVDNALQSGNSQESVTEQDSKDSTYSLESTLTLSKADYEKHKVYACEVTHQGLSSPVTKSFNRGEC heavy 2: not shown | 1.3 | 0.45 | 4.8 | 0.86
2 | iPS:571025 (5605) anti-CGRP receptor/anti-PAC1 receptor bispecific hetero-immunoglobulin (bispecific antibody, human IgG1, kappa, lambda, N297G) light 1: QSVLTQPPSVSAAPGQKVTISCSGSYSNIGRYSVSWYQQLPGTAPKLLIYDNNKRPSGIPDRFSGSKSGTSATLGITGLQTGDEADYYCGTWDSRLSAVVFGGGTKLTVLGQPKAAPSVTLFPPSSEELQANKATLVCLISDFYPGAVTVAWKADSSPVKAGVETTTPSKQSNNKYAAKSYLSLTPEQWKSHRSYSCQVTHEGSTVEKTVAPTECS heavy 1: QVQLVESGGGVVQPGRSLRLSCAASGFTFSSFGMHWVRQAPGKGLEWVAVISFDGSIKYSVDSVKGRFTISRDNSKNTLFLQMNSLRAEDTAVYYCARDRLNYYESSGYYHYKYYGMAVWGQGTTVTVSSASTKGPSVFPLAPSSKSTSGGTAALGCLVKDYFPEPVTVSWNSGALTSGVHTFPAVLQSSGLYSLESVVTVPSSSLGTQTYICNVNHKPSNTKVDKKVEPKSCDKTHTCPPCPAPELLGGPSVFLFPPKPKDTLYITREPEVTCVVVDVSHEDPEVKFNWYVDGVEVHNAKTKPCEEQYGSTYRCVSVLTVLHQDWLNGKEYKCKVSNKALPAPIEKTISKAKGQPREPQVYTLPPSRKEMTKNQVSLTCLVKGFYPSDIAVEWESNGQPENNYKTTPPVLKSDGSFFLYSKLTVDKSRWQQGNVFSCSVMHEALHNHYTQKSLSLSPGK light 2: EIVLTQSPATLSLSPGERATLSCRASKSVGRSLHWYQQKPGQAPRLLIKYASQSLSGIPARFSGSGSGTDFTLTISSLEPEDFAVYYCHQSSRLPFTFGPGTKVDIKRTVAAPSVFIFPPSDEQLKSGTASVVCLLNNFYPREAKVQWKVDNALQSGNSQESVTEQDSKDSTYSLESTLTLSKADYEKHKVYACEVTHQGLSSPVTKSFNRGEC heavy 2: not shown | 0.9 | 0.6 | 3.1 | 1.34
